Experimental data reported in the supplement of paper PMC9112550, “Optimization of the antimicrobial peptide Bac7 by deep mutational scanning” (BMC Biology, 2022).

tested on: Escherichia coli TOP10; test: shrunken log2 fold change of peptide-encoding DNA abundance (4.5 h post-induction vs induction); higher = less antimicrobial activity (less host growth inhibition); details: time post-induction: 4.5 h; library: site-saturation at positions 5, 18, 19, 20
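Further: peptides expressed intracellularly from a pBAD plasmid library in pooled LB shake-flask culture, induced with 0.3% L-arabinose, DNA abundance read by NGS, three biological replicates, DESeq2 with apeglm shrinkage.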

Point of comparison: RRIRYRPPRLPRPRPRPHQKPRP, “shrunken log2 fold change” value -0.248. Against it:
- RRIRDRPPRLPRPRPRPFSCPRP — higher, 0.171
- RRIRLRPPRLPRPRPRPKPMPRP — higher, 0.964
- RRIRQRPPRLPRPRPRPEMKPRP — within 0.2 log units, -0.0789
- RRIRERPPRLPRPRPRPTDQPRP — within 0.2 log units, -0.127
- RRIRLRPPRLPRPRPRPLHAPRP — higher, 0.261
- RRIRRRPPRLPRPRPRPDADPRP — higher, 1.78
- RRIRCRPPRLPRPRPRPGSKPRP — within 0.2 log units, -0.179
- RRIRGRPPRLPRPRPRPYNPPRP — lower, -0.504
- RRIRPRPPRLPRPRPRPFWLPRP — higher, 0.115
- RRIRYRPPRLPRPRPRPIYYPRP — lower, -0.461
- RRIRTRPPRLPRPRPRPFYQPRP — lower, -0.65
- RRIRERPPRLPRPRPRPDCLPRP — within 0.2 log units, -0.428
- RRIRMRPPRLPRPRPRPDIAPRP — higher, 0.0562
- RRIRARPPRLPRPRPRPILLPRP — within 0.2 log units, -0.293
- RRIRERPPRLPRPRPRPYTQPRP — within 0.2 log units, -0.0502
- RRIRIRPPRLPRPRPRPTGLPRP — higher, 0.375
- RRIRYRPPRLPRPRPRPNILPRP — lower, -1.9
- RRIRFRPPRLPRPRPRPQYVPRP — within 0.2 log units, -0.368
- RRIRARPPRLPRPRPRPPVGPRP — higher, 1.18
- RRIRKRPPRLPRPRPRPLLCPRP — higher, 0.347
- RRIRYRPPRLPRPRPRPWGPPRP — within 0.2 log units, -0.206
- RRIRIRPPRLPRPRPRPWSLPRP — lower, -0.449
- RRIRHRPPRLPRPRPRPITNPRP — lower, -1.23
- RRIRYRPPRLPRPRPRPLFWPRP — within 0.2 log units, -0.214
- RRIRLRPPRLPRPRPRPLVQPRP — within 0.2 log units, -0.0853
- RRIRPRPPRLPRPRPRPGYSPRP — within 0.2 log units, -0.0781
- RRIRPRPPRLPRPRPRPIRVPRP — within 0.2 log units, -0.262
- RRIRCRPPRLPRPRPRPQWYPRP — within 0.2 log units, -0.321
- RRIRHRPPRLPRPRPRPSVNPRP — higher, -0.0443
- RRIRDRPPRLPRPRPRPIMIPRP — within 0.2 log units, -0.408
- RRIRLRPPRLPRPRPRPSIDPRP — within 0.2 log units, -0.191
- RRIRPRPPRLPRPRPRPEYNPRP — lower, -0.624
- RRIRYRPPRLPRPRPRPICWPRP — higher, 0.142
- RRIRSRPPRLPRPRPRPKADPRP — higher, 0.572
- RRIRLRPPRLPRPRPRPIRIPRP — within 0.2 log units, -0.379
- RRIRDRPPRLPRPRPRPSWHPRP — within 0.2 log units, -0.0852
- RRIRNRPPRLPRPRPRPSFGPRP — higher, 0.00557
- RRIRMRPPRLPRPRPRPMVKPRP — higher, 0.0401
- RRIRPRPPRLPRPRPRPCYYPRP — within 0.2 log units, -0.436
- RRIRCRPPRLPRPRPRPQDWPRP — within 0.2 log units, -0.0628
- RRIRYRPPRLPRPRPRPMPPPRP — within 0.2 log units, -0.331
- RRIRGRPPRLPRPRPRPRMGPRP — higher, 0.868
- RRIRVRPPRLPRPRPRPIRWPRP — higher, -0.0339
- RRIRIRPPRLPRPRPRPDSRPRP — higher, -0.0316
- RRIRWRPPRLPRPRPRPEYGPRP — higher, 0.222
- RRIRQRPPRLPRPRPRPNCCPRP — higher, 0.0381
- RRIRHRPPRLPRPRPRPGTLPRP — within 0.2 log units, -0.259
- RRIRPRPPRLPRPRPRPWCMPRP — within 0.2 log units, -0.355
- RRIRPRPPRLPRPRPRPNVGPRP — higher, 0.0392
- RRIRSRPPRLPRPRPRPLTPPRP — higher, 0.166
- RRIRLRPPRLPRPRPRPLDWPRP — higher, 0.124
- RRIRPRPPRLPRPRPRPVYLPRP — lower, -0.6
- RRIRARPPRLPRPRPRPKHRPRP — higher, 0.556
- RRIRVRPPRLPRPRPRPMLMPRP — higher, 0.00342
- RRIRFRPPRLPRPRPRPKHKPRP — within 0.2 log units, -0.265
- RRIRSRPPRLPRPRPRPNTTPRP — within 0.2 log units, -0.194
- RRIRKRPPRLPRPRPRPKLVPRP — higher, 0.0448
- RRIRSRPPRLPRPRPRPDSTPRP — lower, -0.481
- RRIRARPPRLPRPRPRPCEVPRP — higher, 3.46
- RRIRKRPPRLPRPRPRPYKQPRP — within 0.2 log units, -0.0754
- RRIRIRPPRLPRPRPRPCTSPRP — within 0.2 log units, -0.438
- RRIRCRPPRLPRPRPRPSIKPRP — lower, -0.597
- RRIRDRPPRLPRPRPRPWWCPRP — higher, -0.00632
- RRIRQRPPRLPRPRPRPEYFPRP — higher, -0.0285
- RRIRWRPPRLPRPRPRPGNQPRP — within 0.2 log units, -0.225
- RRIRTRPPRLPRPRPRPGNGPRP — within 0.2 log units, -0.222
- RRIRDRPPRLPRPRPRPFRKPRP — higher, -0.0314
- RRIRWRPPRLPRPRPRPYDWPRP — within 0.2 log units, -0.0803
- RRIRLRPPRLPRPRPRPESSPRP — higher, -0.015
- RRIRERPPRLPRPRPRPWGEPRP — within 0.2 log units, -0.279
- RRIRIRPPRLPRPRPRPEFKPRP — higher, 0.387
- RRIRRRPPRLPRPRPRPLMRPRP — higher, 1.07
- RRIRLRPPRLPRPRPRPMWTPRP — within 0.2 log units, -0.0582
- RRIRTRPPRLPRPRPRPNIGPRP — within 0.2 log units, -0.0888
